Consider three substances from patent US20230348569A1.

Test [1] deals with SARS-CoV-2 spike protein (S-wt, Wuhan-Hu-1, NCBI Accession Number MN908947.3) on VSV-SARS-CoV-2-S pseudoparticles (SARS-CoV-2) (UniProt P0DTC2). Description: cell-based or functional assay.
For test [2], the target named is MERS.hFc (mAb2664-L1) (MERS-CoV) (UniProt K9N5Q8). Description: Luminex bead binding, supernatant.
Test [3] addresses MERS.mFc (mAb2663-L1) (MERS-CoV) (UniProt K9N5Q8). Briefly: Luminex bead binding, supernatant.
Test [4] addresses Bt-MERS.hFc (mAb2664-L2) (MERS-CoV) (UniProt K9N5Q8). Description: Luminex bead binding, supernatant.

In the case of mAb10934 (antibody), the neutralization potency IC50 in test [1] is 0.0544 nM.
On the same count and under the same terms, to mAb10936 (antibody) belongs 0.111 nM.
In test [1], mAb10987 (antibody) displayed a neutralization potency IC50 of 0.0406 nM. Further, the figures for the MFI in test [2], in test [3] and in test [4] were 235 MFI, 196 MFI and 172 MFI, respectively.
